Data: PMC3282699, “S. pombe Kinesins-8 Promote Both Nucleation and Catastrophe of Microtubules” (PLoS ONE, 2012)
Each block holds one molecule with its values, some of them ahead of it.

Assays:
Klp6_(440)His (S. pombe) = Klp6_(440)His (S. pombe) (UniProt O59751)
[1] = molecular target: S. pombe GMPCPP microtubules (S. pombe), P04688
[2] = molecular target: S. pombe tubulin heterodimer (S. pombe), P04688
[3] = molecular target: Taxol stabilised pig brain microtubules (pig) (UniProt P02550)
[4] = molecular target: the molecule itself; assay: SEC; Superose-12 HR 10/300 GL at 4°C, 0.5 ml/min, 100 mM PIPES, 200 mM NaCl, 1 mM MgCl2, 2 mM EDTA, pH 6.9; elution compared with Ovalbumin (43 kDa) and Bovine Serum Albumin (67 kDa)
[5] = molecular target: S. pombe single isoform (α1β) tubulin heterodimer (S. pombe) (UniProt P04688); assay: SEC; 15 µM tubulin with 10.7 µM dimeric Klp6_(440)His incubated at 4°C for 30 min in 80 mM PIPES, 2.5 mM MgCl2, 1 mM EDTA, 1.5 mM GMPCPP, 1 mM DTT pH 6.9; Superose-12 at 4°C; fractions on SDS-PAGE, fluorescent stain quantified
[6] = molecular target: S. pombe GMPCPP microtubules (S. pombe) (UniProt P04688)
[7] = molecular target: S. pombe tubulin heterodimer (S. pombe) (UniProt P04688)
Sequence of S. pombe tubulin heterodimer (S. pombe) (P04688 whole entry, chain 1 of 2): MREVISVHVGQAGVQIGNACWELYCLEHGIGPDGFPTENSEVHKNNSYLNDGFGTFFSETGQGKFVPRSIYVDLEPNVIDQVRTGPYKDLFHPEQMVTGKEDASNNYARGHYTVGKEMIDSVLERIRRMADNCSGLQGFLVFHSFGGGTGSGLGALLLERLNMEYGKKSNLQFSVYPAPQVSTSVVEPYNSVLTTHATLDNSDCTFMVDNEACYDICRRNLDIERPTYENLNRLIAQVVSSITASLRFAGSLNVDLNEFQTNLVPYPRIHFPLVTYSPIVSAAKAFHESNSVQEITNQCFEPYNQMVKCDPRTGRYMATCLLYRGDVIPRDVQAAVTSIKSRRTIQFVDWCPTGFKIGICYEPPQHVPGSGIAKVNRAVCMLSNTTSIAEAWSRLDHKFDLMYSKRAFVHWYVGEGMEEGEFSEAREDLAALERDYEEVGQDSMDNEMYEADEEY
Sequence of S. pombe tubulin heterodimer (S. pombe) (P05219 whole entry, chain 2 of 2, further chain): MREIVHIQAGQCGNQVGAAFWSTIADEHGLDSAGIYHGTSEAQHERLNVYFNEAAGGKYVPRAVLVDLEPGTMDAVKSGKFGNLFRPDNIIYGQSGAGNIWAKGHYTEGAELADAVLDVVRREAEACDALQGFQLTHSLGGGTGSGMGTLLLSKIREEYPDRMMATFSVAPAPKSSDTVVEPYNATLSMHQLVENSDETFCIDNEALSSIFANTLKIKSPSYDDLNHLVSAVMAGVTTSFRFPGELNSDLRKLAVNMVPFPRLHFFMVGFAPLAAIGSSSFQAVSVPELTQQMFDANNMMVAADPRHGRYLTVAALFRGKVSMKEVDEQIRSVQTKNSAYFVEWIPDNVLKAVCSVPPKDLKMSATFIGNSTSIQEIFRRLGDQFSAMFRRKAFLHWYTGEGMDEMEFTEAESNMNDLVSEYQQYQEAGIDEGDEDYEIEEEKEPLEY

[8] = molecular target: pig brain tubulin heterodimer (pig) (UniProt P02550)
Sequence of pig brain tubulin heterodimer (pig) (P02550 whole entry, chain 1 of 2): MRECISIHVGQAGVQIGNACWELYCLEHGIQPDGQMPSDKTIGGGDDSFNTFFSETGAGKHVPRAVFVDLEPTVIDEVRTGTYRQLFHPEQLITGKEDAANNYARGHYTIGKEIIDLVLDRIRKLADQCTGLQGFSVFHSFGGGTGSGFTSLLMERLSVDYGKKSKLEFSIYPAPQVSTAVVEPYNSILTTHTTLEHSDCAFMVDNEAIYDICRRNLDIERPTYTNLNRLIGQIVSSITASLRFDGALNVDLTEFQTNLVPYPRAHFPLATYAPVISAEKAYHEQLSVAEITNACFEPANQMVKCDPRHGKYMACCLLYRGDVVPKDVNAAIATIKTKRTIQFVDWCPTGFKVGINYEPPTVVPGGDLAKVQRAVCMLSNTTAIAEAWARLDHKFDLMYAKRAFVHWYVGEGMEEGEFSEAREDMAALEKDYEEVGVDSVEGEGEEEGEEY
Sequence of pig brain tubulin heterodimer (pig) (Q767L7 whole entry, chain 2 of 2, further chain): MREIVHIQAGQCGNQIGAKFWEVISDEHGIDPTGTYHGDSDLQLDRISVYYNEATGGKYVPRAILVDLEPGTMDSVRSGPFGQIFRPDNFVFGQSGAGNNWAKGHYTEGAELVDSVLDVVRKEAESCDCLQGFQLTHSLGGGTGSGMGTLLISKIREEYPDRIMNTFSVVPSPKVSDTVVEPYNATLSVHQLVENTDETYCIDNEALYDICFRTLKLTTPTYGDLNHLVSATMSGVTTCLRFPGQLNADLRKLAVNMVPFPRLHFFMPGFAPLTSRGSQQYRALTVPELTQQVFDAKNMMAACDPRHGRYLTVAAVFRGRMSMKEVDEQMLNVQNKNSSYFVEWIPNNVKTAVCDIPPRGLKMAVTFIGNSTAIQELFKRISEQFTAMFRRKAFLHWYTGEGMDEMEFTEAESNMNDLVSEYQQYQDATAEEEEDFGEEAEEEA

Klp5FLGST = molecular target: T1, Klp5FLGST (S. pombe, UniProt O14343 1-883); assay: pull-down; co-expressed in E. coli; sequential affinity purification from the bacterial lysate by the His tag (Ni column) and then the GST tag (eluted with 10 mM glutathione); SDS-PAGE, densitometry; details: partners not purified
T1 construct: Klp5, kinesin-8 of S. pombe, amino acids 1-883; it was only obtained co-expressed with Klp6FLHis; The cloning of this plasmid is not described in the methods; also called full-length Klp5; not shown: GST, C-terminal, kept
T1 sequence (looked up): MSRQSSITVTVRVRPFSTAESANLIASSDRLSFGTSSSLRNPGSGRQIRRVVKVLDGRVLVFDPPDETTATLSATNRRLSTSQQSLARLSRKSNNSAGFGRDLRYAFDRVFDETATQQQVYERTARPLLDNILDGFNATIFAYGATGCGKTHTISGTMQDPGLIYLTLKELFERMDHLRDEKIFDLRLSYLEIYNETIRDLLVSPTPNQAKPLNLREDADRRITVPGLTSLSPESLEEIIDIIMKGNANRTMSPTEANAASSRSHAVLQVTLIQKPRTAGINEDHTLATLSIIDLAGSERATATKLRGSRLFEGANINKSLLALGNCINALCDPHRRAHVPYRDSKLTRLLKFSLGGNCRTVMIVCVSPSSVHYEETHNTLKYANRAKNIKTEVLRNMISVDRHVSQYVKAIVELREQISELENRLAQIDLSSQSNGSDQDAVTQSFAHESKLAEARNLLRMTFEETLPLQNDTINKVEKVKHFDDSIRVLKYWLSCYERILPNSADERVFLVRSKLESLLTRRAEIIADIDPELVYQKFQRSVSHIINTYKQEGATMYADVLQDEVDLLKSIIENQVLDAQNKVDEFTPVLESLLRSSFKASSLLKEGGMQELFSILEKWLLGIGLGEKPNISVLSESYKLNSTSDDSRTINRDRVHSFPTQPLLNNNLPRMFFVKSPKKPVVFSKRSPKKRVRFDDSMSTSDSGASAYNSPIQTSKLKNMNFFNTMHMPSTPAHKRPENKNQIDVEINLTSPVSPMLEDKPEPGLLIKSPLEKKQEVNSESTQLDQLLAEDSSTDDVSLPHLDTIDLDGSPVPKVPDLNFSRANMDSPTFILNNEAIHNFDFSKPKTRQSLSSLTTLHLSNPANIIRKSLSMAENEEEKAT

Sequence of S. pombe tubulin heterodimer (S. pombe), P04688 (P04688 whole entry, chain 1 of 2): as the sequence (P04688 whole entry, chain 1 of 2) above
Sequence of S. pombe tubulin heterodimer (S. pombe), P04688 (P05219 whole entry, chain 2 of 2, further chain): as the sequence (P05219 whole entry, chain 2 of 2, further chain) above

Ki of tubulin heterodimers for inhibition of the Klp6 (440)His ATPase stimulated by 73 nM Taxol stabilised pig brain microtubules (blocked pair: m3 with m12) (Klp6_(440)His (S. pombe)): 175 nM
Molecule: pig brain tubulin heterodimer (from UniProt P02550 1-451; Q767L7 1-444) (complex)

Ki of tubulin heterodimers for inhibition of the Klp6 (440)His ATPase stimulated by 73 nM Taxol stabilised pig brain microtubules (blocked pair: m3 with m12) (Klp6_(440)His (S. pombe)): 121 nM
Molecule: S. pombe tubulin heterodimer (from UniProt P04688 1-455; P05219 1-448) (complex)

Km of the microtubule stimulated ATPase (S. pombe GMPCPP microtubules), linked assay at 25°C [1]: 0.056 µM
Km of the tubulin heterodimer stimulated ATPase (S. pombe tubulin), linked assay at 25°C [2]: 0.373 µM
B1: Klp6_(440)His, O59751 1-440 (domain or fragment)
chain: MKEGSSISVAVRVRPFTEREKGLLAETPKSKEFLGDGSLAVSNTSSNTFCTNGIRKIVRVLDDNVLIFDPPEENPLAKVQKSLLPAGKRFRDVRYAFDRLFGEEASQEDVYKGTTEPLLDSVLQGYNATVFAYGATGCGKTHTISGRPDDPGIIFLTMRALLDRVEGLKRTMNVDISVSYLEIYNEKIRDLLVQDPLSMEKPKSLNICEDAEQNVSVPGLSYFTPTNLEEVMEIIIRGNSNRTMSPTEANAVSSRSHAVLQIYITQTPKSGEKQEESESQNSHKVRSVFSFIDLAGSERASATKNRGKRLVEGANINRSLLALGNCINSLCEPRRRQHVPYRDSKLTRLLKFSLGGNCRTCMIVCISPSSEHYDETHNTLKYGNRAKNIKTKVSRNVVSVDRHVSEYVRTIYELRQKVSILQKRIAEESKQLALNKEVRK

Km of the microtubule stimulated ATPase (Taxol stabilised pig brain microtubules), linked assay at 25°C [3]: 0.085 µM
stoichiometry N (tubulin heterodimer per kinesin head) [5]: 1
B2: Klp6_(440)His (domain or fragment, S. pombe, UniProt O59751 1-440, looked up)
chain: B1 chain
notes: Klp6 of S. pombe, amino acids 1-440: motor domain and complete putative coiled-coil domain; Homodimer by Superose 12 gel filtration; also called Klp6(aa1-440)/GlyGly/6xHis tag; Klp440His; source: E. coli Rosetta 2 (DE3), purified (HisTrap); not shown: His6 (after a GlyGly linker), C-terminal, kept
stoichiometry N [4]: 2

Km of the microtubule stimulated ATPase (Taxol stabilised pig brain microtubules), linked assay at 25°C [3]: 0.0278 µM
B3: Klp5_(436)GST (domain or fragment)
chain: MSRQSSITVTVRVRPFSTAESANLIASSDRLSFGTSSSLRNPGSGRQIRRVVKVLDGRVLVFDPPDETTATLSATNRRLSTSQQSLARLSRKSNNSAGFGRDLRYAFDRVFDETATQQQVYERTARPLLDNILDGFNATIFAYGATGCGKTHTISGTMQDPGLIYLTLKELFERMDHLRDEKIFDLRLSYLEIYNETIRDLLVSPTPNQAKPLNLREDADRRITVPGLTSLSPESLEEIIDIIMKGNANRTMSPTEANAASSRSHAVLQVTLIQKPRTAGINEDHTLATLSIIDLAGSERATATKLRGSRLFEGANINKSLLALGNCINALCDPHRRAHVPYRDSKLTRLLKFSLGGNCRTVMIVCVSPSSVHYEETHNTLKYANRAKNIKTEVLRNMISVDRHVSQYVKAIVELREQISELENRLAQIDLSSQSN

Km of the microtubule stimulated ATPase (S. pombe GMPCPP microtubules), linked assay at 25°C [1]: 0.045 µM
Km of the tubulin heterodimer stimulated ATPase (S. pombe tubulin), linked assay at 25°C [2]: 0.108 µM
B4: Klp5_(436)GST, O14343 1-436 (domain or fragment)
chain: B3 chain

Km of the microtubule stimulated ATPase (S. pombe GMPCPP microtubules), linked assay at 25°C [6]: 0.05 µM
Km of the tubulin heterodimer stimulated ATPase (S. pombe tubulin), linked assay at 25°C [7]: 0.336 µM
Km of the microtubule stimulated ATPase (Taxol stabilised pig brain microtubules), linked assay at 25°C [3]: 0.045 µM
Km of the tubulin heterodimer stimulated ATPase (pig brain tubulin), linked assay at 25°C [8]: 0.427 µM
B5: Klp5_(436) (domain or fragment)
chain: B3 chain

molar ratio of Klp6FLHis : Klp5FLGST in the sequentially purified fraction (Klp5FLGST): 3.2 Klp6FLHis per Klp5FLGST
B6: Klp6FLHis (natural protein, S. pombe, UniProt O59751 1-784, looked up)
chain: MKEGSSISVAVRVRPFTEREKGLLAETPKSKEFLGDGSLAVSNTSSNTFCTNGIRKIVRVLDDNVLIFDPPEENPLAKVQKSLLPAGKRFRDVRYAFDRLFGEEASQEDVYKGTTEPLLDSVLQGYNATVFAYGATGCGKTHTISGRPDDPGIIFLTMRALLDRVEGLKRTMNVDISVSYLEIYNEKIRDLLVQDPLSMEKPKSLNICEDAEQNVSVPGLSYFTPTNLEEVMEIIIRGNSNRTMSPTEANAVSSRSHAVLQIYITQTPKSGEKQEESESQNSHKVRSVFSFIDLAGSERASATKNRGKRLVEGANINRSLLALGNCINSLCEPRRRQHVPYRDSKLTRLLKFSLGGNCRTCMIVCISPSSEHYDETHNTLKYGNRAKNIKTKVSRNVVSVDRHVSEYVRTIYELRQKVSILQKRIAEESKQLALNKEVRKISSREIKMLDARSMLKNSFDGSRDLQKSLIEHVRTLRRIEDEITLTKMWISIAKESDAMSGHNIKSVETRLAKLYDQRSLITAKVNPEEICKTFQNSISHIVSSFKGEGADMYADMLQDDVDLLKSIIENQILDAKHESETFSSTSRKLIQNLFLLFPLLPGNAIDVNESLARAFDQLVGIVPSEPTIQVPNLIEKGKAPLLSMFEIPRSPSRFKARSPSKAARVLKKPLKKRVRFSEVPTTSSVPPVEIKNKDSKPKVEKSLDKHNMNNDRSFLVPSRDARNSLTSLSLHSNVAKNKSSHSSKWPTHTLSPIITTALKQPVRRISLVSQPLQKTGGTENTPNA
notes: Klp6, kinesin-8 of S. pombe, amino acids 1-784; also called full-length Klp6; Klp6(aa1-784)/GlyGly/6xHis tag; not shown: His6 (after a GlyGly linker), C-terminal, kept
